# In the supplement of paper PMC9112550, “Optimization of the antimicrobial peptide Bac7 by deep mutational scanning” (BMC Biology, 2022):
# Tested on: Escherichia coli TOP10
# Test: shrunken log2 fold change of peptide-encoding DNA abundance (4.5 h post-induction vs induction); higher = less antimicrobial activity (less host growth inhibition)
# Settings: time post-induction: 4.5 h; library: site-saturation at positions 5, 18, 19, 20
# 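Note: peptides expressed intracellularly from a pBAD plasmid library in pooled LB shake-flask culture, induced with 0.3% L-arabinose, DNA abundance read by NGS, three biological replicates, DESeq2 with apeglm shrinkage.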
row,Sequence,shrunken log2 fold change
1,RRIRFRPPRLPRPRPRPYSGPRP,-0.293
2,RRIRPRPPRLPRPRPRPNANPRP,0.0132
3,RRIRHRPPRLPRPRPRPGGTPRP,0.0131
4,RRIRARPPRLPRPRPRPINMPRP,-0.346
5,RRIRGRPPRLPRPRPRPSIWPRP,0.511
6,RRIRGRPPRLPRPRPRPVLAPRP,0.773
7,RRIRHRPPRLPRPRPRPNIFPRP,-0.0903
8,RRIRFRPPRLPRPRPRPRMCPRP,0.0779
9,RRIRFRPPRLPRPRPRPTCHPRP,-0.231
10,RRIRHRPPRLPRPRPRPCWVPRP,-0.0013
11,RRIRHRPPRLPRPRPRPPMLPRP,0.0935
12,RRIRDRPPRLPRPRPRPWLKPRP,-0.00783
13,RRIRNRPPRLPRPRPRPMRYPRP,-0.154
14,RRIRNRPPRLPRPRPRPMAGPRP,0.0481
15,RRIRCRPPRLPRPRPRPLHSPRP,-0.383
16,RRIRKRPPRLPRPRPRPCNLPRP,0.0104
17,RRIRCRPPRLPRPRPRPFWIPRP,-0.513
18,RRIRLRPPRLPRPRPRPNPAPRP,-0.0363
19,RRIRYRPPRLPRPRPRPRYIPRP,-0.397
20,RRIRERPPRLPRPRPRPQHPPRP,-0.367
21,RRIRQRPPRLPRPRPRPCQYPRP,-0.00191
22,RRIRCRPPRLPRPRPRPRIFPRP,-0.16

row,Sequence,shrunken log2 fold change
1,RRIRKRPPRLPRPRPRPTPMPRP,0.555
2,RRIRMRPPRLPRPRPRPRSFPRP,0.307
3,RRIRQRPPRLPRPRPRPFRIPRP,-0.0135
4,RRIRSRPPRLPRPRPRPYKWPRP,-0.18
5,RRIRMRPPRLPRPRPRPMYDPRP,-0.0496
6,RRIRQRPPRLPRPRPRPCAKPRP,0.0917
7,RRIRYRPPRLPRPRPRPDARPRP,-0.294
8,RRIRGRPPRLPRPRPRPKSAPRP,0.781
9,RRIRSRPPRLPRPRPRPYPRPRP,-0.45
10,RRIRCRPPRLPRPRPRPWDRPRP,-0.608
11,RRIRQRPPRLPRPRPRPIIYPRP,-0.858
12,RRIRNRPPRLPRPRPRPMMFPRP,-0.0478
13,RRIRRRPPRLPRPRPRPWLHPRP,0.333
14,RRIRNRPPRLPRPRPRPRNPPRP,0.0944
15,RRIRMRPPRLPRPRPRPGDEPRP,0.818
16,RRIRYRPPRLPRPRPRPQCCPRP,-0.18
17,RRIRNRPPRLPRPRPRPFHTPRP,-0.232
18,RRIRDRPPRLPRPRPRPRHQPRP,0.0533
19,RRIRGRPPRLPRPRPRPYMKPRP,-0.493
20,RRIRKRPPRLPRPRPRPMFDPRP,0.166
21,RRIRDRPPRLPRPRPRPLGFPRP,-0.0377
22,RRIRFRPPRLPRPRPRPNNIPRP,-1.04

row,Sequence,shrunken log2 fold change
1,RRIRERPPRLPRPRPRPLQHPRP,0.159
2,RRIRFRPPRLPRPRPRPHVNPRP,-0.297
3,RRIRGRPPRLPRPRPRPVIAPRP,0.506
4,RRIRPRPPRLPRPRPRPKKRPRP,0.136
5,RRIRCRPPRLPRPRPRPGHTPRP,-0.128
6,RRIRCRPPRLPRPRPRPHRSPRP,-0.114
7,RRIRHRPPRLPRPRPRPEYPPRP,0.0664
8,RRIRIRPPRLPRPRPRPHIIPRP,-0.614
9,RRIRRRPPRLPRPRPRPDTWPRP,-0.131
10,RRIRWRPPRLPRPRPRPVLDPRP,0.0956
11,RRIRHRPPRLPRPRPRPPPCPRP,0.603
12,RRIRIRPPRLPRPRPRPYNTPRP,-0.725
13,RRIRARPPRLPRPRPRPHQFPRP,-0.024
14,RRIRSRPPRLPRPRPRPCHAPRP,-0.0203
15,RRIRHRPPRLPRPRPRPYMWPRP,-1.86
16,RRIRWRPPRLPRPRPRPCTDPRP,0.0992
17,RRIRDRPPRLPRPRPRPVRWPRP,1.2
18,RRIRWRPPRLPRPRPRPGYKPRP,-0.255
19,RRIRVRPPRLPRPRPRPVLYPRP,-0.281
20,RRIRERPPRLPRPRPRPQYYPRP,-0.676
21,RRIRKRPPRLPRPRPRPHLEPRP,-0.0191
22,RRIRDRPPRLPRPRPRPCSSPRP,0.187

row,Sequence,shrunken log2 fold change
1,RRIRPRPPRLPRPRPRPLRVPRP,0.615
2,RRIRERPPRLPRPRPRPMSKPRP,-0.439
3,RRIRARPPRLPRPRPRPEAWPRP,-0.00193
4,RRIRFRPPRLPRPRPRPSIWPRP,-0.111
5,RRIRARPPRLPRPRPRPVHRPRP,-0.0852
6,RRIRVRPPRLPRPRPRPTLCPRP,0.0223
7,RRIRPRPPRLPRPRPRPKSTPRP,-0.244
8,RRIRWRPPRLPRPRPRPYETPRP,-0.181
9,RRIRGRPPRLPRPRPRPEVFPRP,1.38
10,RRIRSRPPRLPRPRPRPFCMPRP,-0.324
11,RRIRSRPPRLPRPRPRPAYKPRP,-0.136
12,RRIRGRPPRLPRPRPRPAAPPRP,1.38
13,RRIRVRPPRLPRPRPRPPMNPRP,-0.205
14,RRIRMRPPRLPRPRPRPVWDPRP,-0.136
15,RRIRSRPPRLPRPRPRPVTGPRP,0.255
16,RRIRGRPPRLPRPRPRPWEIPRP,0.361
17,RRIRQRPPRLPRPRPRPRIDPRP,0.0868
18,RRIRSRPPRLPRPRPRPDCAPRP,0.187
19,RRIRERPPRLPRPRPRPMWNPRP,-0.0278
20,RRIRGRPPRLPRPRPRPRLWPRP,1.36
21,RRIRTRPPRLPRPRPRPLKRPRP,-0.236
22,RRIRTRPPRLPRPRPRPPCKPRP,-0.193

row,Sequence,shrunken log2 fold change
1,RRIRRRPPRLPRPRPRPKRMPRP,0.514
2,RRIRHRPPRLPRPRPRPRCWPRP,0.145
3,RRIRERPPRLPRPRPRPHGSPRP,-0.15
4,RRIRSRPPRLPRPRPRPWYSPRP,-0.257
5,RRIRNRPPRLPRPRPRPAMIPRP,-0.254
6,RRIRRRPPRLPRPRPRPAWDPRP,0.324
7,RRIRDRPPRLPRPRPRPPREPRP,0.837
8,RRIRWRPPRLPRPRPRPQSWPRP,0.302
9,RRIRDRPPRLPRPRPRPVPMPRP,0.115
10,RRIRNRPPRLPRPRPRPCHYPRP,0.00673
11,RRIRPRPPRLPRPRPRPQGMPRP,-0.279
12,RRIRIRPPRLPRPRPRPVYLPRP,-0.0309
13,RRIRNRPPRLPRPRPRPLCNPRP,-0.324
14,RRIRMRPPRLPRPRPRPCPNPRP,0.0197
15,RRIRARPPRLPRPRPRPCQEPRP,0.094
16,RRIRPRPPRLPRPRPRPYNAPRP,-0.608
17,RRIRKRPPRLPRPRPRPMHDPRP,0.321
18,RRIRRRPPRLPRPRPRPAKTPRP,0.408
19,RRIRVRPPRLPRPRPRPEQCPRP,0.171
20,RRIRTRPPRLPRPRPRPTWHPRP,0.153
21,RRIRNRPPRLPRPRPRPHNNPRP,-1.05
